Source: US20240132624A1

Legend:
human FcRn/b2M (human) [1] = target: human FcRn/b2M (human) (UniProt P61769); experiment: SPR; pH 7.4 vs pH 6.0
human FcRn/b2M (human) [2] = target: human FcRn/b2M (human) (UniProt P61769); experiment: SPR pH 6.0
human FcRn/b2M (human) [3] = target: human FcRn/b2M (human) (UniProt P61769); experiment: SPR pH 7.4

- KD ratio pH 7.4/6.0 (human FcRn/b2M (human) [1]): 54
- Kd (human FcRn/b2M (human) [2]): 19 nM
- Kd (human FcRn/b2M (human) [3]): 1000 nM
B1: T0263018B11 bivalent (VHH, part only; not given: linker, not shown: small tags and cut ends)
chain, part: EVQLVESGGGVVQPGGSLRLSCAASGFTFSSYAMYWVRQAPGKGLEWVSAISSGGGSTDYADSVKGRFTISRDNSKNTLYLQMNSLRPEDTALYYCAADTLYTSLTWYSYWGQGTLVTVSSEVQLVESGGGVVQPGGSLRLSCAASGFTFSSYAMYWVRQAPGKGLEWVSAISSGGGSTDYADSVKGRFTISRDNSKNTLYLQMNSLRPEDTALYYCAADTLYTSLTWYSYWGQGTLVTVSS
